The record followed here is patent publication US20220227882A1 (TRUSTEES OF TUFTS COLLEGE, published 2022).

The target of assay [1] is T1, Recombinant human ADAM8 (rHuADAM8) ectodomain protein (aa 17-497), ACRO Biosystems AD8-H5223 (human, UniProt P78325 17-497).
T1 construct: Bought protein made in HEK293 cells; The protein clips off its own prodomain (aa 17-191); also called rhADAM8; immunogen
T1 sequence: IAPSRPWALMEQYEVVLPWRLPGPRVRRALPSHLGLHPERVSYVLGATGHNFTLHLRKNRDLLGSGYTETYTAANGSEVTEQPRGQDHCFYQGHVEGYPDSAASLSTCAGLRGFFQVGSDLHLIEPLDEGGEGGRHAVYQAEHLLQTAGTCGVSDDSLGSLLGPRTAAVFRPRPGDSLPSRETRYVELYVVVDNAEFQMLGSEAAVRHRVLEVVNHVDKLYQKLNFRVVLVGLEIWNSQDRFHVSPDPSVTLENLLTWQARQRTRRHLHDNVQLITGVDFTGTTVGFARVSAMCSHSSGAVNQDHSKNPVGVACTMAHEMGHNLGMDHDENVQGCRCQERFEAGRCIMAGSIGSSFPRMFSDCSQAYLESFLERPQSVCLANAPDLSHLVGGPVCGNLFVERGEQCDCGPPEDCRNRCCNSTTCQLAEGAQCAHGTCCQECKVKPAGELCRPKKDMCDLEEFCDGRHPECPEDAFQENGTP
Put plainly: ELISA, coated rHuADAM8. The procedure: ELISAs were performed to assess the anti-ADAM8 antibodies for binding to rHuADAM8 during preparation and screening stages, using mouse sera, hybridoma supernatants and purified mouse and chimeric ADPs. ELISA plates (96-well) were coated with 1 μg/ml rHuADAM8 (Acro Biosystems, AD8-H5223) overnight at 4° C. Plates were washed three times with phosphate buffered saline (PBS) containing 0.05% Tween 20 (PBST) and blocked with 1% bovine serum albumin (BSA) in PBST at 37° C. for 1 hr. Plates were then exposed to sera, supernatants or purified antibodies for 1 hour at 37° C.
For analysis of antibodies in the serum of mice, pre-bleed and test bleed samples in 6 dilutions ranging from 1:100 to 1:10,000,000 were tested. For analysis of antibodies in hybridoma clone and subclone supernatants, plates were subjected to 50 μl of supernatants. A test bleed sample (1:1000) and hybridoma culture medium were used as positive and negative controls, respectively. For purified antibody characterization, coated plates were incubated with eight increasing concentrations of each specific ADP ranging from 10⁻⁵ to 10³ nM. Normal mouse IgG (1 μg/ml) was used as a negative control to indicate the level of general non-specific binding and a test bleed sample (1:100) was used as a positive control. Samples were washed three times with PBST and incubated for 30 minutes at 37° C. with a secondary goat anti-mouse IgG (Fc specific)-HRP antibody (Sigma A0168, 1:5000). After washing three times with PBST, the signal was developed with addition of 100 μl of the horseradish peroxidase substrate 3,3′,5,5′-Tetramethylbenzidine (TMB) for 10 minutes at room temperature, followed by quenching with 50 μl 1N HCl. Signal was read in a 96-well spectrophotometer at an optical density (OD) of 450 nm.
For orientation: An ELISA detects its analyte on a solid surface through an enzyme-linked reagent.

Assay [2] deals with T1, Recombinant human ADAM8 (rHuADAM8) …. Put plainly: Biacore SPR, rHuADAM8 as analyte. The protocol:
For Biacore assays, each ADP was used as the ligand in a multiple cycle kinetics method performed on a Biacore™ T200 surface plasmon resonance system (GE Healthcare Life Sciences) machine. ADP proteins were captured using anti-mouse Fc IgG attached to a dextran matrix, and rHuADAM8 (Acro Biosystems, AD8-H5223) added as the analyte at concentrations ranging from 3.75 nM to 200 nM. HBS-EP+ (10 mM HEPES, 0.15 M NaCl, 3 mM EDTA, 0.05% Surfactant P20) running buffer was passed at a flow rate of 30 μl/min and antigen injected at 30 μl/min. The association and dissociation phases were carried out for 180 s and 600 s, respectively. Surface regeneration was performed for 30 s at 30 μl/min of Glycine pH 1.5. Values for association rate constant (kₐ), dissociation rate constant (kd) and equilibrium dissociation constant (KD) were calculated through the Biacore™ T200 Software.
On the technique in general: SPR reads the build-up and loss of mass on a sensor chip optically.

The target is the same in assay [3]. Put plainly: adhesion of α9β1 integrin CHO cells to coated rHuADAM8, antibody 20 µg/ml, vs isotype control IgG; mean ± S.D., n=3. The text has this: To mimic this process and evaluate both the presence of an active DI domain on rHuADAM8 and the ability of ADPs to inhibit this activity in vitro, adhesion of Chinese Hamster Ovary (CHO) cells expressing α9β1 integrin vs the negative control αvβ3 integrin was used (Rao et al., J Bone Miner Res, 21(10): 1657-1665, 2006). CHO cells were maintained in DMEM high glucose (Invitrogen) supplemented with 10% FBS, 1% penicillin/streptomycin (Hyclone), L-glutamine (Gibco), non-essential amino acids (Gibco) and 100 μg/ml G418 (Teknova). Adhesion of CHO cells expressing α9β1 integrin or αvβ3 integrin to plates coated with rHuADAM8 (Acro Biosystems, AD8-H5223) was assessed as follows. Briefly, 96-well plates were coated overnight with 1.5 μg of rHuADAM8 per well, blocked with 1% BSA and washed with PBS.
To assess the ability of ADPs to inhibit DI activity, 96-well plates coated with rHuADAM8 as above were pre-treated in duplicate for 2 hours with either PBS, 20 μg/ml of dialyzed or protein A purified ADP, MAB1031 or control isotype-matched IgGs. Unattached cells were washed off and attached cells counted as above.

B1: ADP2 (antibody, V domains shown)
VH: EVKLVESGGGLVQPGGSLSLSCAASGFSFPDYYMSWVRQPPGKALEWLGFIRDSANGYTTEYIASVKGRFTFSRDNSQSILYLQMNALRAEDSATYYCARYSRYYGMDYWGQGTSVTVSS
VL: SIVMTQTPKILLVSAGDRVTITCKASQTVNYDVAWYQQKPGQSPKPVIYFASNRYTGVPDRFTGSGFGTDFTFTISTVQAEDLAVYFCQQDYSAPWTFGGGTKLEIK
notes: also called mADP2; mouse ADP2
The EC50 is the concentration needed to bring the measured effect to its halfway point. As usually defined, the Kd is the equilibrium constant for the complex coming apart. As to B1, the EC50 in assay [1] amounted to 0.029 nM. Moreover, the Kd in assay [2] worked out at 3.34 nM. The “% inhibition of α9β1 integrin binding to ADAM8” value (from here on “% inhibition”) in assay [3] is 72 % inhibition.

B2: ADP13 (antibody, IgG1, V domains shown)
VH: EVQLQQSGPEMVKPGTSVKISCKASGYTFTDYYINWVKQSHGKSLEWIGDISPNIGGATYNPKFKGKAILTVDKSARTAYMELRSLTSEDSAVYCCTRGGSSYPYFYAMDYWGQGTSVTVSS
VL: DIVMSQSPSSLAVSVGEKVTMSCKSSQSLLYSSNQKKYLAWYQQKPGQSPKLLIYWASTRESGVPDRFTGSGSGTDFTLTISSVKAEDLAVYYCQQFYSYPYTFGGGTKLEINR
notes: also called mADP13; mouse ADP13
Regarding B2, the EC50 in assay [1] is 0.054 nM. For the same molecule, in assay [2], the Kd was 1.3 nM. In assay [3], the “% inhibition” value is 78.5 % inhibition.

B3: ADP3 (antibody, IgG1, V domains shown)
VH: EVKLEESGGGLVQPGGSMKLSCAASGFTFSDAWMDWVRQSPEKGLEWVAEIRGKVNNLATYYVESVKGRFTISRDDSKSSVYLQMNSLRAEDTGIYYCLGRYDATYAMDYWGQGTSVTVSS
VL: DVVMTQTPLSLPVSLGDQASISCRSSQSLVHSDGNTYLHWYLQKPGQSPKLLIYKLSNRFSGVPDRFSGSGSGTDFTLKISRVEAEDLGVYFCSQSTHVPWTFGGGTKLEIK
As for B3, the EC50 in assay [1] is 0.049 nM. For the same molecule, in assay [2], the Kd came to 18.3 nM. Besides, the “% inhibition” value in assay [3] was 69.3 % inhibition.
